Among the data in publication PMC1669733 are stoichiometry N values, retold here.

Experiment [1] deals with His-Rep 1–362 (full-length Rep protein of Mungbean yellow mosaic India virus) (Mungbean yellow mosaic India virus (MYMIV)). Kind of experiment: sucrose gradient centrifugation.
Experiment [2] deals with His-Rep 120–362 (Mungbean yellow mosaic India virus (MYMIV)). Kind of experiment: sucrose gradient centrifugation.

A word on the stoichiometry N: it is a count of units in the complex or per binding partner.

The substance “His-Rep 1–362 (full-length Rep protein of Mungbean yellow mosaic India virus) (enzyme)” registered a stoichiometry N in experiment [1] of 24.
For His-Rep 120–362 (domain or fragment), the stoichiometry N in experiment [2] was 24.
